Experimental data: patent US20050113304

Biological target: T1, Buforin I
T1 chain: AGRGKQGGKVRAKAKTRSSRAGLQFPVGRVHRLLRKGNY

B1: Botulinum toxin B (protein)
chain 1: PVTINNFNYNDPIDNNNIIMMEPPFARGTGRYYKAFKITDRIWIIPERYTFGYKPEDFNKSSGIFNRDVCEYYDPDYLNTNDKKNIFLQTMIKLFNRIKSKPLGEKLLEMIINGIPYLGDRRVPLEEFNTNIASVTVNKLISNPGEVERKKGIFANLIIFGPGPVLNENETIDIGIQNHFASREGFGGIMQMKFCPEYVSVFNNVQENKGASIFNRRGYFSDPALILMHELIHVLHGLYGIKVDDLPIVPNEKKFFMQSTDAIQAEELYTFGGQDPSIITPSTDKSIYDKVLQNFRGIVDRLNKVLVCISDPNININIYKNKFKDKYKFVEDSEGKYSIDVESFDKLYKSLMFGFTETNIAENYKIKTRASYFSDSLPPVKIKNLLDNEIYTIEEGFNISDKDMEKEYRGQNKAINKQAYEEISKEHLAVYKIQMCKSVK
chain 2: APGICIDVDNEDLFFIADKNSFSDDLSKNERIEYNTQSNYIENDFPINELILDTDLISKIELPSENTESLTDFNVDVPVYEKQPAIKKIFTDENTIFQYLYSQTFPLDIRDISLTSSFDDALLFSNKVYSFFSMDYIKTANKVVEAGLFAGWVKQIVNDFVIEANKSNTMDKIADISLIVPYIGLALNVGNETAKGNFENAFEIAGASILLEFIPELLIPVVGAFLLESYIDNKNKIIKTIDNALTKRNEKWSDMYGLIVAQWLSTVNTQFYTIKEGMYKALNYQAQALEEIIKYRYNIYSEKEKSNINIDFNDINSKLNEGINQAIDNINNFINGCSVSYLMKKMIPLAVEKLLDFDNTLKKNLLNYIDENKLYLIGSAEYEKSKVNKYLKTIMPFDLSIYTNDTILIEMFNKYNSEILNNIILNLRYKDNNLIDLSGYGAKVEVYDGVELNDKNQFKLTSSANSKIRVTQNQNIIFNSVFLDFSVSFWIRIPKYKNDGIQNYIHNEYTIINCMKNNSGWKISIRGNRIIWTLIDINGKTKSVFFEYNIREDISEYINRWFFVTITNNLNNAKIYINGKLESNTDIKDIREVIANGEIIFKLDGDIDRTQFIWMKYFSIFNTELSQSNIEERYKIQSYSEYLKDFWGNPLMYNKEYYMFNAGNKNSYIKLKKDSPVGEILTRSKYNQNSKYINYRDLYIGEKFIIRRKSNSQSINDDIVRKEDYIYLDFFNLNQEWRVYTYKYFKKEEEKLFLAPISDSDEFYNTIQIKEYDEQPTYSCQLLFKKDEESTDEIGLIGIHRFYESGIVFEEYKDYFCISKWYLKEVKRKPYNLKLGCNWQFIPKDEGWTE
- substrate cleavage in the endopeptidase assay: B-I is not a substrate for BttxB
